The target in this data set is NFIA full-length (human, UniProt Q12857 1-509). Put plainly: BLI.

For orientation: Kd means the free concentration of one partner at which half of the binding sites on the other are occupied at equilibrium, for simple one-to-one binding. High values mean a looser complex, low ones a tighter complex.

NFIA full-length, sequence (Q12857 whole entry): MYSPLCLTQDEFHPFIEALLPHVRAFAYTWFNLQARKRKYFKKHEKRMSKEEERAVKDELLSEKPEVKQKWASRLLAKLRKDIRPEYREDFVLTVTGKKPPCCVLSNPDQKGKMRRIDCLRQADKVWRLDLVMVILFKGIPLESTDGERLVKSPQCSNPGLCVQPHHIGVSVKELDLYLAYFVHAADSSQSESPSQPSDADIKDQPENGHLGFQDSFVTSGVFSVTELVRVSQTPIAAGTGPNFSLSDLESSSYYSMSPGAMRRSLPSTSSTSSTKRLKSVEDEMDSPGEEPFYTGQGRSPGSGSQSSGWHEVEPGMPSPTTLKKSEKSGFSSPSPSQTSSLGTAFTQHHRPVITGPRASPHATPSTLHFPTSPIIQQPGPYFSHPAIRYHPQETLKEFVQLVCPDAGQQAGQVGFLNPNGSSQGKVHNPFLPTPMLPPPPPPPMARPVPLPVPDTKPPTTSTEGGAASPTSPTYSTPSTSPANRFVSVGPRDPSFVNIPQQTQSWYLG

B1: DNA-S (dsDNA)
DNA 1: AGTTGGCAAGTC
DNA 2: GACTTGCCAACT
For B1, the affinity, expressed as Kd, was 0.0204 µM.
